Data reported in the supplement of paper PMC5998384.

Key:
HeLa Kyoto [1] = assay: thermal stability score vs G1/S (z-score of summed log2 fold changes over temperatures); higher = more thermally stable than in G1/S
HeLa Kyoto [2] = assay: solubility change mitosis vs G1/S (difference of NP-40 vs SDS log2 ratios) (log2 ratio difference); higher = more soluble in mitosis
HeLa Kyoto [3] = assay: melting temperature (median over replicates), in situ; higher = more thermally stable
HeLa Kyoto [4] = assay: solubility in G1/S (NP-40 vs SDS abundance) (log2 ratio); higher = more soluble; settings: cell cycle stage: G1/S
[5] = cell cycle stage: early G1 (4.5 h after nocodazole release)
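For melting temperature (median over replicates), in situ in this document: HeLa Kyoto cells synchronized by double thymidine or nocodazole block, proteins quantified by TMT10plex mass spectrometry, three independent biological replicates.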
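For solubility change mitosis vs G1/S (difference of NP-40 vs SDS log2 ratios) in this document: synchronized HeLa Kyoto cells (double thymidine block for G1/S, nocodazole release for mitosis), protein amounts in NP-40 versus SDS lysates quantified by mass spectrometry, three biological replicates.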
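For solubility in G1/S (NP-40 vs SDS abundance) in this document: HeLa Kyoto cells arrested at G1/S by double thymidine block, proteins quantified by TMT10plex mass spectrometry in mild NP-40 versus SDS extracts, three biological replicates.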
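For thermal stability score vs G1/S (z-score of summed log2 fold changes over temperatures) in this document: synchronized HeLa Kyoto cells, proteins quantified by TMT10plex mass spectrometry, three biological replicates, mitosis taken 0.5 h after nocodazole release, G1/S directly after double thymidine block.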

Sequence	thermal stability score (HeLa Kyoto [1]; [5])	thermal stability score (HeLa Kyoto [1]; cell cycle stage: mitosis)	solubility change mitosis (log2) (HeLa Kyoto [2])	melting temperature (HeLa Kyoto [3]; cell cycle stage: G1/S) [°C]	melting temperature (HeLa Kyoto [3]; cell cycle stage: mitosis) [°C]	solubility in G1/S (log2) (HeLa Kyoto [4])
MSAPAGSSHPAASARIPPKFGGAAVSGAAAPAGPGAGPAPHQQNGPAQNQMQVPSGYGLHHQNYIAPSGHYSQGPGKMTSLPLDTQCGDYYSALYTVPTQNVTPNTVNQQPGAQQLYSRGPPAPHIVGSTLGSFQGAASSASHLHTSASQPYSSFVNHYNSPAMYSASSSVASQGFPSTCGHYAMSTVSNAAYPSVSYPSLPAGDTYGQMFTSQNAPTVRPVKDNSFSGQNTAISHPSPLPPLPSQQHHQQQSLSGYSTLTWSSPGLPSTQDNLIRNHTGSLAVANNNPTITVADSLSCPVMQNVQPPKSSPVVSTVLSGSSGSSSTRTPPTANHPVEPVTSVTQPSELLQQKGVQYGEYVNNQASSAPTPLSSTSDDEEEEEEDEEAGVDSSSTTSSASPMPNSYDALEGGSYPDMLSSSASSPAPDPAPEPDPASAPAPASAPAPVVPQPSKMAKPFGYGYPTLQPGYQNATAPLISGVQPSNPVYSGFQQYPQQYPGVNQLSSSIGGLSLQSSPQPESLRPVNLTQERNILPMTPVWAPVPNLNADLKKLNCSPDSFRCTLTNIPQTQALLNKAKLPLGLLLHPFRDLTQLPVITSNTIVRCRSCRTYINPFVSFIDQRRWKCNLCYRVNDVPEEFMYNPLTRSYGEPHKRPEVQNSTVEFIASSDYMLRPPQPAVYLFVLDVSHNAVEAGYLTILCQSLLENLDKLPGDSRTRIGFMTFDSTIHFYNLQEGLSQPQMLIVSDIDDVFLPTPDSLLVNLYESKELIKDLLNALPNMFTNTRETHSALGPALQAAFKLMSPTGGRVSVFQTQLPSLGAGLLQSREDPNQRSSTKVVQHLGPATDFYKKLALDCSGQQTAVDLFLLSSQYSDLASLACMSKYSAGCIYYYPSFHYTHNPSQAEKLQKDLKRYLTRKIGFEAVMRIRCTKGLSMHTFHGNFFVRSTDLLSLANINPDAGFAVQLSIEESLTDTSLVCFQTALLYTSSKGERRIRVHTLCLPVVSSLADVYAGVDVQAAICLLANMAVDRSVSSSLSDARDALVNAVVDSLSAYGSTVSNLQHSALMAPSSLKLFPLYVLALLKQKAFRTGTSTRLDDRVYAMCQIKSQPLVHLMKMIHPNLYRIDRLTDEGAVHVNDRIVPQPPLQKLSAEKLTREGAFLMDCGSVFYIWVGKGCDNNFIEDVLGYTNFASIPQKMTHLPELDTLSSERARSFITWLRDSRPLSPILHIVKDESPAKAEFFQHLIEDRTEAAFSYYEFLLHVQQQICK [SEC24B]	1.03	1.85	-0.119	48.8	49.5	-0.132
MSASASVGGPVPQPPPGPAAALPPGSAARALHVELPSQQRRLRHLRNIAARNIVNRNGHQLLDTYFTLHLCSTEKIYKEFYRSEVIKNSLNPTWRSLDFGIMPDRLDTSVSCFVVKIWGGKENIYQLLIEWKVCLDGLKYLGQQIHARNQNEIIFGLNDGYYGAPFEHKGYSNAQKTILLQVDQNCVRNSYDVFSLLRLHRAQCAIKQTQVTVQKIGKEIEEKLRLTSTSNELKKKSECLQLKILVLQNELERQKKALGREVALLHKQQIALQDKGSAFSAEHLKLQLQKESLNELRKECTAKRELFLKTNAQLTIRCRQLLSELSYIYPIDLNEHKDYFVCGVKLPNSEDFQAKDDGSIAVALGYTAHLVSMISFFLQVPLRYPIIHKGSRSTIKDNINDKLTEKEREFPLYPKGGEKLQFDYGVYLLNKNIAQLRYQHGLGTPDLRQTLPNLKNFMEHGLMVRCDRHHTSSAIPVPKRQSSIFGGADVGFSGGIPSPDKGHRKRASSENERLQYKTPPPSYNSALAQPVTTVPSMGETERKITSLSSSLDTSLDFSKENKKKGEDLVGSLNGGHANVHPSQEQGEALSGHRATVNGTLLPSEQAGSASVQLPGEFHPVSEAELCCTVEQAEEIIGLEATGFASGDQLEAFNCIPVDSAVAVECDEQVLGEFEEFSRRIYALNENVSSFRRPRRSSDK [UVRAG]	0.204	-0.16	-0.117	51.7	52.4	0.216
MSASSLLEQRPKGQGNKVQNGSVHQKDGLNDDDFEPYLSPQARPNNAYTAMSDSYLPSYYSPSIGFSYSLGEAAWSTGGDTAMPYLTSYGQLSNGEPHFLPDAMFGQPGALGSTPFLGQHGFNFFPSGIDFSAWGNNSSQGQSTQSSGYSSNYAYAPSSLGGAMIDGQSAFANETLNKAPGMNTIDQGMAALKLGSTEVASNVPKVVGSAVGSGSITSNIVASNSLPPATIAPPKPASWADIASKPAKQQPKLKTKNGIAGSSLPPPPIKHNMDIGTWDNKGPVAKAPSQALVQNIGQPTQGSPQPVGQQANNSPPVAQASVGQQTQPLPPPPPQPAQLSVQQQAAQPTRWVAPRNRGSGFGHNGVDGNGVGQSQAGSGSTPSEPHPVLEKLRSINNYNPKDFDWNLKHGRVFIIKSYSEDDIHRSIKYNIWCSTEHGNKRLDAAYRSMNGKGPVYLLFSVNGSGHFCGVAEMKSAVDYNTCAGVWSQDKWKGRFDVRWIFVKDVPNSQLRHIRLENNENKPVTNSRDTQEVPLEKAKQVLKIIASYKHTTSIFDDFSHYEKRQEEEESVKKERQGRGK [YTHDF2]	-0.975	-1.92	0.0349	51	50.7	0.00424
MSATSVDQRPKGQGNKVSVQNGSIHQKDAVNDDDFEPYLSSQTNQSNSYPPMSDPYMPSYYAPSIGFPYSLGEAAWSTAGDQPMPYLTTYGQMSNGEHHYIPDGVFSQPGALGNTPPFLGQHGFNFFPGNADFSTWGTSGSQGQSTQSSAYSSSYGYPPSSLGRAITDGQAGFGNDTLSKVPGISSIEQGMTGLKIGGDLTAAVTKTVGTALSSSGMTSIATNSVPPVSSAAPKPTSWAAIARKPAKPQPKLKPKGNVGIGGSAVPPPPIKHNMNIGTWDEKGSVVKAPPTQPVLPPQTIIQQPQPLIQPPPLVQSQLPQQQPQPPQPQQQQGPQPQAQPHQVQPQQQQLQNRWVAPRNRGAGFNQNNGAGSENFGLGVVPVSASPSSVEVHPVLEKLKAINNYNPKDFDWNLKNGRVFIIKSYSEDDIHRSIKYSIWCSTEHGNKRLDAAYRSLNGKGPLYLLFSVNGSGHFCGVAEMKSVVDYNAYAGVWSQDKWKGKFEVKWIFVKDVPNNQLRHIRLENNDNKPVTNSRDTQEVPLEKAKQVLKIIATFKHTTSIFDDFAHYEKRQEEEEAMRRERNRNKQ [YTHDF3]	-0.535	-3.39	-0.0838	52.4	51.6	0.098
MSCESSMVLGYWDIRGLAHAIRLLLEFTDTSYEEKRYTCGEAPDYDRSQWLDVKFKLDLDFPNLPYLLDGKNKITQSNAILRYIARKHNMCGETEEEKIRVDIIENQVMDFRTQLIRLCYSSDHEKLKPQYLEELPGQLKQFSMFLGKFSWFAGEKLTFVDFLTYDILDQNRIFDPKCLDEFPNLKAFMCRFEALEKIAAYLQSDQFCKMPINNKMAQWGNKPVC [GSTM3]	1.24	3.37	-0.117	47.9	48.3	0.0979
MSDDAGDTLATGDKAEVTEMPNSDSLPEDAEVHCDSAAVSHEPTPADPRGEGHENAAVQGAGAAAIGPPVQPQDANALEPPLNGDVTEDTLAECIDSVSLEAEPRSEIPLQEQNYLAVDSPPSGGGWAGWGSWGKSLLSSASATVGHGLTAVKEKAGATLRIHGVNSGSSEGAQPNTENGVPEITDAATDQGPAESPPTSPSSASRGMLSAITNVVQNTGKSVLTGGLDALEFIGKKTMNVLAESDPGFKRTKTLMERTVSLSQMLREAKEKEKQRLAQQLTMERTAHYGMLFDEYQGLSHLEALEILSNESESKVQSFLASLDGEKLELLKNDLISIKDIFAAKELENEENQEEQGLEEKGEEFARMLTELLFELHVAATPDKLNKAMKRAHDWVEEDQTVVSVDVAKVSEEETKKEEKEEKSQDPQEDKKEEKKTKTIEEVYMSSIESLAEVTARCIEQLHKVAELILHGQEEEKPAQDQAKVLIKLTTAMCNEVASLSKKFTNSLTTVGSNKKAEVLNPMISSVLLEGCNSTTYIQDAFQLLLPVLQVSHIQTSCLKAQP [FAM114A1]	0.444	0.327	-0.158	52.9	53.1	0.474
